Experimental data: article PMC7449927

Experiments:
[1] = western blot, BEL7402-SIX1KO rescue cells, TMG; conditions: glycan lost; control: wild-type SIX1, TMG-treated
[2] = CHX chase western blot (half-life), TMG; conditions: glycan lost; control: wild-type SIX1, TMG-treated
[3] = ubiquitin affinity bead pulldown, SIX1 blot, MG132 and NEM; conditions: glycan lost; control: wild-type SIX1, TMG-treated
[4] = western blot, BEL7402 and BEL7404 cells; conditions: glycan lost; control: untreated / control lentivirus

B1: SIX1 (sine oculis homeobox homolog 1): T276A (protein)
parent chain: MSMLPSFGFTQEQVACVCEVLQQGGNLERLGRFLWSLPACDHLHKNESVLKAKAVVAFHRGNFRELYKILESHQFSPHNHPKLQQLWLKAHYVEAEKLRGRPLGAVGKYRVRRKFPLPRTIWDGEETSYCFKEKSRGVLREWYAHNPYPSPREKRELAEATGLTTTQVSNWFKNRRQRDRAAEAKERENTENNNSSSNKQNQLSPLEGGKPLMSSSEEEFSPPQSPDQNSVLLLQGNMGHARSSNYSLPGLTASQPSHGLQTHQHQLQDSLLGPLTSSLVDLGS
expression_or_secretion [1]: decreases | degradation_or_half_life [2]: decreases | other: ubiquitination [3]: increases

B2: SIX1 (sine oculis homeobox homolog 1): OGT knockdown (protein)
parent chain: MSMLPSFGFTQEQVACVCEVLQQGGNLERLGRFLWSLPACDHLHKNESVLKAKAVVAFHRGNFRELYKILESHQFSPHNHPKLQQLWLKAHYVEAEKLRGRPLGAVGKYRVRRKFPLPRTIWDGEETSYCFKEKSRGVLREWYAHNPYPSPREKRELAEATGLTTTQVSNWFKNRRQRDRAAEAKERENTENNNSSSNKQNQLSPLEGGKPLMSSSEEEFSPPQSPDQNSVLLLQGNMGHARSSNYSLPGLTASQPSHGLQTHQHQLQDSLLGPLTSSLVDLGS
expression_or_secretion [4]: decreases
